Measurements taken from the supplement of paper PMC10567573.

B1: TRIM39 (parent)
chain: CKACITRWWEDLERDFPCPVCRKT

Variants of: B1
Assay: protein stability index of a GFP-peptide fusion (GPS, HEK-293T) (PSI 1-6); higher = more stable
Conditions: c terminus: a fixed tail appended
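Further: lentivirally expressed fusions sorted by FACS into six bins by GFP to DsRed ratio, PSI derived from sequencing read proportions per bin multiplied by bin number.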

Protein stability index of substitutions, site by site:
I5: R 3.93, P 3.86, M 4.22, C 4.63, V 3.35, S 4.22, D 4.36, F 4.22, N 4.12, A 4.25, H 4.49, K 3.88, E 4.6, T 3.99, Y 4.39, G 3.86, Q 4.31, L 4.25, W 3.99
V20: D 4.55, C 3.44, E 4.77, A 4.24
F16: R 4.2, S 4.27, K 4.48, Y 3.7, A 4.32, C 2.32, M 3.99, E 4.66, I 3.78, V 4.04, D 4.42, W 3.6, P 3.76, G 4.05, Q 4.59, L 2.96, T 4.37, H 4.1, N 3.54
T6: N 4.38, L 3.58, Y 3.33, E 4.03, G 4.36, Q 3.77, K 3.57, V 2.71, M 3.27, P 3.5, R 3.42, S 3.62, D 4.27, W 3.36, H 3.28, A 3.64, F 2.95, C 2.57, I 3.01
W8: E 4.73, D 4.42, S 4.92, F 4.17, P 5.08, H 4.66, G 4.8, R 4.62, I 4.26, Y 4.22, C 4.15, L 4.19, M 4.62, V 4.73, T 4.09, Q 4.83, A 4.07, N 5.12, K 4.6
P19: F 1.95, H 3.35, I 2.3, C 2.26, N 3.29, L 2.65, D 3.85, T 3.35, M 2.88, A 3.15, Y 2.27, S 3.47, W 2.1, R 2.82, K 2.69, Q 3.12, E 3.55, G 2.86, V 2.94
D11: N 4.06, F 3.5, A 3.71, G 2.85, K 3.5, Q 3.48, S 4.28, M 3.9, W 3.37, T 3.58, H 3.52, V 3.79, E 3.68, Y 3.31, P 3.93, C 3.38, L 3.57, R 3.4, I 2.53
L12: A 4, N 4.24, G 4.11, P 4.06, Y 3.43, R 3.86, H 2.89, C 3.88, S 4.44, M 4.14, D 4.05, W 3.87, V 3.63, F 3.88, E 3.29, T 4.45, Q 3.65, I 3.71, K 4.19
E10: C 3.64, A 4.08, G 3.94, Q 3.56, V 3.16, T 4.08, F 3.51, R 3.06, S 3.78, I 3.65, L 3.13, M 3.64, Y 3.24, N 4.11, P 3.72, H 3.77, W 2.92, K 3.5, D 4.11
D15: F 3.24, V 3, W 2.72, A 3.32, I 2.43, P 3.87, Y 2.84, T 3.06, G 3.31, R 2.46, S 3.79, E 3.54, H 2.72, Q 3.36, K 2.98, N 3.73, L 2.26, M 2.37, C 2.09
C18: Y 2.02, P 2.25, T 1.39, W 1.11, Q 2.53, G 1.77, D 1.71, H 1.54, M 1.42, R 2.02, E 1.94, L 2.41, V 1.28, I 1.79, S 1.88, K 1.38, F 2.34, N 1.24
A3: T 4.85, I 3.9, P 2.48, C 3.57, R 3.53, W 2.87, G 4.09, H 3.67, N 4.16, V 4.17, D 4.04, S 4.21, Y 3.9, M 3.35, E 4.12, Q 4.06, F 3.17, L 3.8, K 3.06
K2: S 4.59, V 3.53, Y 4.23, Q 4.08, T 4.05, P 4.11, W 3.23, R 4.02
E13: H 3.23, G 3.79, W 2.92, N 3.61, V 2.98, F 3.37, D 3.7, Q 3.94, M 2.95, Y 3.79, P 3.61, I 3.08, R 3.46, K 2.98, L 3.15, C 2.82, S 3.63, A 3.36, T 3.13
P17: E 4.41, G 3.46, A 3.55, W 3.49, F 4.25, S 4.2, Y 3.9, D 3.5, M 4.09, R 4.27, N 4.27, T 3.97, H 4, I 3.97, Q 4.2, L 3.85, K 4.06, C 3.98, V 4.35
C4: Q 2.41, V 2.19, M 1.9, S 2.07, F 2.45, E 1.88, G 1.65, N 2.35, L 1.63, T 2.24, H 3.14, A 1.72, P 2.1, R 2.18, K 2.05, W 1.75, I 1.59, Y 1.61, D 1.75
R7: N 3.89, G 4.08, F 3.79, K 3.73, W 3.97, A 4.08, E 3.73, T 4.07, S 3.98, Y 4.85, H 5.06, D 4, P 3.93, L 3.58, V 3.28, I 2.96, Q 3.93, C 3.8, M 3.72
W9: D 4.55, R 4.47, K 4.86, C 4.53, M 4.11, S 4.56, N 4.52, E 4.24, V 4.31, L 3.87, I 3.65, G 4.55, Q 4.69, H 5.16, T 4.25, A 4.23, P 4.3, Y 3.75, F 4.07
R14: V 3.76, Y 3.48, K 4.03, Q 3.78, C 4.09, W 3.52, L 3.4, G 4.59, M 4.27, H 4.23, I 3.26, S 4.4, E 4.59, N 3.83, F 3.69, A 4.19, T 4.63, D 3.99, P 3.79
